The series addresses T1, SHP2PTP (GST tagged SHP2 catalytic domain) (Homo sapiens, UniProt Q06124).
T1 construct: a fixed amount of purified GST-WT SHP2 catalytic domain (0.2 ug) was incubated with variable concentrations; purchased Abcam 42578
T1 sequence (Q06124 247-517 limits assumed): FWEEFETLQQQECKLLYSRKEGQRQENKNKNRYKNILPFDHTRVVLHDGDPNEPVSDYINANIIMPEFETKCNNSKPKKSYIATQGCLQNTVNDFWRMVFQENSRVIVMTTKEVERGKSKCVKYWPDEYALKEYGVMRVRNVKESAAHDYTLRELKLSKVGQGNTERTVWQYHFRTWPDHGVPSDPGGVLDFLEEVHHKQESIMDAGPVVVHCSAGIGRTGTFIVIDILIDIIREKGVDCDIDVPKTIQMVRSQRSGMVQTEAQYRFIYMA
The series is described as follows: Malachite Green phosphatase assay of SHP2 catalytic domain with phosphotyrosyl peptide substrates. As to conditions: for increase of Km of SHP2-mediated dephosphorylation in the presence of SAP: SAP 1 uM or 10 uM. The format is biochemical. As for the experimental part: FIG. 4. SAP inhibits SHP2 activity. […] At this time, the cells were harvested, and analyzed by immunoblotting, as indicated. (b) Jurkat T cells, transfected with siRNA for SAP (SAP KD) and non-targeting control (Control), were treated with pervanadate to induce maximal phosphorylation, followed by five serial washes, lysis and diafiltration to remove the drug and to exchange the buffer to a phosphatase-compatible buffer. SHP2^PTP (GST tagged SHP2 catalytic domain) was then added to the cell lysates for one hour, at the indicated concentrations, followed by immunoblotting with anti-phosphotyrosine antibody (4G10). (c) Densitometry values of all the phophotyrosine containing proteins shown at b. All values are relative to the baseline condition (without SHP2^PTP). […] (e-g) Enzymatic activity of SHP2^PTP was measured using a Malachite Green assay, with p60-SRC (e), SLAMF5 Y279 (f), CD3 Y142 (g), CD28 Y172 (h), and CD28 Y190 (i) peptides as substrates. Substrate titrations of SHP2P (dark circles) at baseline (control), or in the presence of SAP 1 uM (white circles) or SAP 10 uM (crossed circles) are shown. Curves are fitted using the Michelis-Menten equation and derived Km values are shown. The data points represent the mean of three measurements. (j) A diagram describing the shielding model. Data are represented as mean±SEM. * or ** represent significant differences between the denoted group and the anti-CD3 treated cells in a, or between SAP deficient cells and control cells in e; * <0.05, ** P<0.01, n=4, unpaired t test.
First, SAP could bind SHP2 and directly block the SHP2 catalytic site, or alternatively, SAP might not bind to SHP2, but rather could bind to its substrates and thereby block the interaction between SHP2 and its enzymatic substrates. […] To test the effect of SAP on SHP2 mediated dephosphorylation events, we measured SHP2-mediated dephosphorylation of p60-SRC Y416 (FIG. 4e), SLAMF5 Y279 (FIG. 4f), and CD3 Y142 (FIG. 4g) phosphotyrosyl peptides by Malachite Green assays. […]
To determine kinetic parameters, a fixed amount of purified GST-WT SHP2 catalytic domain was incubated with variable concentrations of substrates in (GenScript) in PTP assay buffer (Phosphatase assay kit; Upstate 17-313). […] release was quantified by adding Malachite Green (Malachite Green phosphatase detection kit; R&D DY996).
293T cells were transfected with pMSCV-SHP2, pMSCV empty vector, PD1-WT-GFP, PD1-Y223F-GFP or PD1-Y248F-GFP for 48 hours, followed by pervanadate treatment and immunoprecipitation using anti-GFP mAb-Agarose. The anti-GFP mAb-Agarose beads that were used for immunoprecipitation were then used for a pull-down of the SHP2/null transfected cells, and phosphatase activity on the beads was assessed using pNPP (Sigma). […]

B1: SAP: Recombinant human SAP (His tagged), signaling lymphocytic activation molecule-associated protein, purchased from Abcam (protein, UniProt O60880 1-128, looked up)
SH2 domain-containing protein …: MDAVAVYHGKISRETGEKLLLATGLDGSYLLRDSESVPGVYCLCVLYHGYIYTYRVSQTETGSWSAETAPGVHKRYFRKIKNLISAFQKPDQGIVIPLQYPVEKKSSARSTQGTTGIREDPDVCLKAP
modifications: His tag
In the case of B1, where the note is “all three phosphotyrosyl peptides (p60-SRC, SLAMF5, CD3)”, the “Vmax of SHP2-mediated dephosphorylation in the presence of SAP” value is reported as “unaffected”. Besides, the “increase of Km of SHP2-mediated dephosphorylation in the presence of SAP” value is on record as 2-3 fold (substrate phosphorylated CD3 Y142 peptide) and 2-3 fold (substrate phosphorylated SLAMF5 Y279 peptide). Further, for the setting “substrates CD28 Y173 and CD28 Y190 peptides”, the “inhibition of SHP2-mediated dephosphorylation of the tail of CD28” value is “predominantly inhibited dephosphorylation of CD28 Y173 over CD28 Y190”.

For the origin of these results see US11110171B2, “PD-1 related cancer therapy” (New York University, priority 2017, dated 2021).
